Measured values: US20080071063A1

Legend:
FcγRIIIA [1] = target: FcγRIIIA (UniProt P08637); test: assay not described; affinity relative to wild type Medi3
FcγRIIIA [2] = target: FcγRIIIA (UniProt P08637); test: assay not described; affinity relative to wild type Medi2

UniProt P08637, sequence (P08637 17-208 limits assumed): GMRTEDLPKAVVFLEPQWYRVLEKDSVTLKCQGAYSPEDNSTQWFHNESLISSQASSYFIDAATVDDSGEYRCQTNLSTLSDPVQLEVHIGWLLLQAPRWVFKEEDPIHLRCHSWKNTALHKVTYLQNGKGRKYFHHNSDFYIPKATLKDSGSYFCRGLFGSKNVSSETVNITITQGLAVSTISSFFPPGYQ

Work on “Medi3-V1 (Fc variant of anti-EphA2 antibody Medi3, glutamate at residue 332)” yielded a fold higher binding affinity than Medi3 (FcγRIIIA [1]) of 8.8 fold.

Substance “Medi2-V3 ("V3" Fc variant of anti-Integrin αVβ3 antibody Medi2, aspartate 239, leucine 330, glutamate 332)” has a fold higher binding affinity than Medi2 (FcγRIIIA [2]) of 78 fold.
